Laboratory results reported in US11278600B2, “Human alpha-galactosidase variants” (Codexis, Inc., priority 2014, dated 2022).
Positions count from the first letter of the chain named.

B1: 194 (protein)
chain: LDNGLARTPTMGWLHWERFMCNLDCQEEPDSCISEKLFMEMAELMVSEGWKDAGYEYLCIDDCWMAPQRDSEGRLQADPQRFPHGIRQLANYVHSKGLKLGIYADVGNKTCAGFPGSFGYYDIDAQTFADWGVDLLKFDGCYCDSLENLADGYKHMSLALNRTGRSIVYSCEWPLYMWPFQKPNYTEIRQYCNHWRNFADIDDSWRSIKSILDWTSFNQERIVDVAGPGGWNDPDMLVIGNFGLSWNQQVTQMALWAIMAAPLFMSNDLRHISPQAKALLQDKDVIAINQDPLGKQGYQLRQGDNFEVWERPLSGLAWAVAMINRQEIGGPRSYTIAVASLGKGVACNPACFITQLLPVKRKLGFYEWTSRLRSHINPTGTVLLQLENTMQMSKDLLL
modifications: Synthetic Polypeptide sequence of Variant No. 194 of mature Human GLA
B2: 200 (protein)
chain: B1 chain with C143A, R206A
modifications: Synthetic Polypeptide sequence of Variant No. 200 of mature Human GLA
B3: 204 (protein)
chain: B1 chain with R206A, E367D
modifications: Synthetic Polypeptide sequence of Variant No. 204 of mature Human GLA
B4: 196 (protein)
chain: B1 chain with R206A, A350G
modifications: Synthetic Polypeptide sequence of Variant No. 196 of mature Human GLA
B5: 201 (protein)
chain: B1 chain with C143T, R206A
modifications: Synthetic Polypeptide sequence of Variant No. 201 of mature Human GLA
B6: 208 (protein)
chain: B1 chain with R206A, E367N, R373K, I376V
modifications: Synthetic Polypeptide sequence of Variant No. 208 of mature Human GLA
B7: 203 (protein)
chain: B1 chain with R206A, E367A, T369D
modifications: Synthetic Polypeptide sequence of Variant No. 203 of mature Human GLA
B8: 206 (protein)
chain: B1 chain with R206A, E367N, K394L, D395K, L396D
modifications: Synthetic Polypeptide sequence of Variant No. 206
B9: 202 (protein)
chain: B1 chain with C59A, R206A
modifications: Synthetic Polypeptide sequence of Variant No. 202 of mature Human GLA
B10: 198 (protein)
chain: B1 chain with R206A, A350G, T369D
modifications: Synthetic Polypeptide sequence of Variant No. 198 of mature Human GLA
B11: 195 (protein)
chain: B1 chain with R206S
modifications: Synthetic Polypeptide sequence of Variant No. 195 of mature Human GLA
B12: 197 (protein)
chain: B1 chain with R206A, A350G, K362Q, T369A
modifications: Synthetic Polypeptide sequence of Variant No. 197 of mature Human GLA
B13: 209 (protein)
chain: B1 chain with R206A, E367P, T369D
modifications: Synthetic Polypeptide sequence of Variant No. 209 of mature Human GLA
B14: 207 (protein)
chain: B1 chain with R206A, E367N, R373K
modifications: Synthetic Polypeptide sequence of Variant No. 207 of mature Human GLA
B15: 199 (protein)
chain: B1 chain with R206A, A350G, T369S
modifications: Synthetic Polypeptide sequence of Variant No. 199 of mature Human GLA
B16: 205 (protein)
chain: B1 chain with R206A, E367D, T369D, K394L, D395K, L396D
modifications: Synthetic Polypeptide sequence of Variant No. 205

Assay: HTP-analysis of supernatants pretreated with acid (MUGal hydrolysis)
Type: biochemical
Settings: challenge at pH 4.2; activity of the variant/activity of Rd2BB (SEQ ID NO: 10); yeast supernatant
Outline: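 MUGal hydrolysis was tracked by fluorescence (Ex 355 nm, Em 448 nm) after a 30-180 min reaction at 37° C. in pH 4.8 McIlvaine/citrate buffer, stopped with 1 M sodium carbonate. Beforehand, yeast (INVSc1) culture supernatants carrying GLA variants were held 1-3 h at 37° C. in acidic McIlvaine buffer, pH 3.3-4.3.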

Molecule	Relative Activity of GLA Variants After Challenge at pH 4.2
B1	++ (++ = 1.5 to 2.5 relative activity over Rd2BB (SEQ ID NO: 10))
B2	+ (+ = 0.5 to 1.5 relative activity over Rd2BB (SEQ ID NO: 10))
B3	+ (+ = 0.5 to 1.5 relative activity over Rd2BB (SEQ ID NO: 10))
B4	+ (+ = 0.5 to 1.5 relative activity over Rd2BB (SEQ ID NO: 10))
B5	+ (+ = 0.5 to 1.5 relative activity over Rd2BB (SEQ ID NO: 10))
B6	+++ (+++ = >2.5 relative activity over Rd2BB (SEQ ID NO: 10))
B7	++ (++ = 1.5 to 2.5 relative activity over Rd2BB (SEQ ID NO: 10))
B8	+++ (+++ = >2.5 relative activity over Rd2BB (SEQ ID NO: 10))
B9	+ (+ = 0.5 to 1.5 relative activity over Rd2BB (SEQ ID NO: 10))
B10	++ (++ = 1.5 to 2.5 relative activity over Rd2BB (SEQ ID NO: 10))
B11	+ (+ = 0.5 to 1.5 relative activity over Rd2BB (SEQ ID NO: 10))
B12	++ (++ = 1.5 to 2.5 relative activity over Rd2BB (SEQ ID NO: 10))
B13	+ (+ = 0.5 to 1.5 relative activity over Rd2BB (SEQ ID NO: 10))
B14	+++ (+++ = >2.5 relative activity over Rd2BB (SEQ ID NO: 10))
B15	++ (++ = 1.5 to 2.5 relative activity over Rd2BB (SEQ ID NO: 10))
B16	++ (++ = 1.5 to 2.5 relative activity over Rd2BB (SEQ ID NO: 10))

Assay: HTP-analysis of yeast culture supernatants, no challenge (MUGal hydrolysis)
Type: biochemical
Settings: activity of the variant/activity of Rd2BB (SEQ ID NO: 10), yeast supernatant
Outline: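 Activity read as 4-methylumbelliferyl α-D-galactopyranoside hydrolysis: fluorescence (355/448 nm) after sodium carbonate stop, following 30-180 min at 37° C with 2 mM MUGal stock at pH 4.6–4.8. Enzyme source is unchallenged culture supernatant of INVSc1 yeast expressing GLA variants, grown 66-84 h at 30° C.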

Molecule	Relative Activity of GLA Variants After No Challenge (NC)
B1	++ (++ = 1.5 to 2.5 relative activity over Rd2BB (SEQ ID NO: 10))
B2	+ (+ = 0.5 to 1.5 relative activity over Rd2BB (SEQ ID NO: 10))
B3	+ (+ = 0.5 to 1.5 relative activity over Rd2BB (SEQ ID NO: 10))
B4	+ (+ = 0.5 to 1.5 relative activity over Rd2BB (SEQ ID NO: 10))
B5	+ (+ = 0.5 to 1.5 relative activity over Rd2BB (SEQ ID NO: 10))
B6	++ (++ = 1.5 to 2.5 relative activity over Rd2BB (SEQ ID NO: 10))
B7	++ (++ = 1.5 to 2.5 relative activity over Rd2BB (SEQ ID NO: 10))
B8	+++ (+++ = >2.5 relative activity over Rd2BB (SEQ ID NO: 10))
B9	+ (+ = 0.5 to 1.5 relative activity over Rd2BB (SEQ ID NO: 10))
B10	++ (++ = 1.5 to 2.5 relative activity over Rd2BB (SEQ ID NO: 10))
B11	+ (+ = 0.5 to 1.5 relative activity over Rd2BB (SEQ ID NO: 10))
B12	++ (++ = 1.5 to 2.5 relative activity over Rd2BB (SEQ ID NO: 10))
B13	+ (+ = 0.5 to 1.5 relative activity over Rd2BB (SEQ ID NO: 10))
B14	++ (++ = 1.5 to 2.5 relative activity over Rd2BB (SEQ ID NO: 10))
B15	++ (++ = 1.5 to 2.5 relative activity over Rd2BB (SEQ ID NO: 10))
B16	++ (++ = 1.5 to 2.5 relative activity over Rd2BB (SEQ ID NO: 10))

Assay: HTP-analysis of supernatants pretreated with base (MUGal hydrolysis)
Type: biochemical
Settings: challenge at pH 7.6; activity of the variant/activity of Rd2BB (SEQ ID NO: 10); yeast supernatant
Outline: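 Supernatants from INVSc1 yeast expressing GLA variants (SD-Ura, 66-84 h, 30° C) were mixed with McIlvaine buffer pH 7.0-8.2 or 200 mM sodium bicarbonate pH 9.1-9.7 and held 1-18 h at 37° C. Residual activity was then measured on MUGal at pH 4.8/4.3, 37° C, 30-180 min, by fluorescence (Ex 355/Em 448 nm).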

Molecule	Relative Activity of GLA Variants After Challenge at pH 7.6
B1	++ (++ = 1.5 to 2.5 relative activity over Rd2BB (SEQ ID NO: 10))
B2	+ (+ = 0.5 to 1.5 relative activity over Rd2BB (SEQ ID NO: 10))
B3	+ (+ = 0.5 to 1.5 relative activity over Rd2BB (SEQ ID NO: 10))
B4	+ (+ = 0.5 to 1.5 relative activity over Rd2BB (SEQ ID NO: 10))
B5	+ (+ = 0.5 to 1.5 relative activity over Rd2BB (SEQ ID NO: 10))
B6	+++ (+++ = >2.5 relative activity over Rd2BB (SEQ ID NO: 10))
B7	+++ (+++ = >2.5 relative activity over Rd2BB (SEQ ID NO: 10))
B8	+++ (+++ = >2.5 relative activity over Rd2BB (SEQ ID NO: 10))
B9	+ (+ = 0.5 to 1.5 relative activity over Rd2BB (SEQ ID NO: 10))
B10	+++ (+++ = >2.5 relative activity over Rd2BB (SEQ ID NO: 10))
B11	+ (+ = 0.5 to 1.5 relative activity over Rd2BB (SEQ ID NO: 10))
B12	++ (++ = 1.5 to 2.5 relative activity over Rd2BB (SEQ ID NO: 10))
B13	+ (+ = 0.5 to 1.5 relative activity over Rd2BB (SEQ ID NO: 10))
B14	+++ (+++ = >2.5 relative activity over Rd2BB (SEQ ID NO: 10))
B15	++ (++ = 1.5 to 2.5 relative activity over Rd2BB (SEQ ID NO: 10))
B16	++ (++ = 1.5 to 2.5 relative activity over Rd2BB (SEQ ID NO: 10))
